This test deals with Recombinant human NRP-1 (neuropilin-1 co-receptor) (human) (UniProt O14786). The test can be described thus: ELISA; competitive; recombinant human NRP-1 coated on a 96-well plate (200 ng/well, overnight, 4 °C), blocked with 0.5% BSA in PBS; 50 µL compound in PBS (100, 50, 25, 12.5, 6.75 µM) plus 50 µL (400 ng/mL) human (bt)-VEGF-A165 in PBS with 4 µg/mL heparin; 2 h at room temperature; streptavidin-HRP, chemiluminescence; IC50 by nonlinear regression, mean ± SD of three experiments.

Experimental findings from publication PMC9953004, “Scandium-44 Radiolabeled Peptide and Peptidomimetic Conjugates Targeting Neuropilin-1 Co-Receptor as Potential Tools for Cancer Diagnosis and Anti-Angiogenic Therapy” (Biomedicines, 2023) are described below.

Recombinant human NRP-1 (neuropilin-1 co-receptor) (human), sequence (O14786 22-856): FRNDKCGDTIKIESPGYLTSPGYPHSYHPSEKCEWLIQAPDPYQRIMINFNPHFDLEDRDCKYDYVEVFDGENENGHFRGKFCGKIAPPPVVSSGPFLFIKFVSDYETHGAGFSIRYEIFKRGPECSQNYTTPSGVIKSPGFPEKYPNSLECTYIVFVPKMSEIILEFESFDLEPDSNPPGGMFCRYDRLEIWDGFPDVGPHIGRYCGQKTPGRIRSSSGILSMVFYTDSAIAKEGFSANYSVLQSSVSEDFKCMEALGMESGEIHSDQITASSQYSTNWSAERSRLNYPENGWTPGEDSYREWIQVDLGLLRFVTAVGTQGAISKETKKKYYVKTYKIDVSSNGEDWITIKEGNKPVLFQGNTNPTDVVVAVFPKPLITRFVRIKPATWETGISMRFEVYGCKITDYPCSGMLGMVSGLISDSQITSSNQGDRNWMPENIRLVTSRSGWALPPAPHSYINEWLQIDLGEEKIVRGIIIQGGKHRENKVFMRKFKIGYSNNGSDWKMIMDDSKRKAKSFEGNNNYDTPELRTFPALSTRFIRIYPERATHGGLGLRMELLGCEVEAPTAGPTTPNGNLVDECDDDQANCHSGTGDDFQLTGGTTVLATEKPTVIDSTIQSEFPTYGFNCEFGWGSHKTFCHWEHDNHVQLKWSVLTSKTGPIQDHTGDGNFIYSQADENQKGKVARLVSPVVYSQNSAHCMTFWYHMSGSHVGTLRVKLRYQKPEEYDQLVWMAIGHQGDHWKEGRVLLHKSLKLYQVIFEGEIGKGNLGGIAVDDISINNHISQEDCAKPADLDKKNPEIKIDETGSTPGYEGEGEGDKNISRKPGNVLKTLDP

Turning to ^DR7A-^DLys(DOTA-Ga) (peptide), the IC50 was over 100 µM.

As for ^DR7A-^DLys(DOTA-Sc) (peptide), the 50% inhibitory concentration (IC50) was over 100 µM.
